Results published in patent publication US6790633.

Target: T1, rat brain farnesyl:protein transferase (rat, UniProt Q04631 2-377; Q02293 1-437)
Assay: cell-based or functional assay

Binder	Concentration For 50% Inhibition [µM]
CIIC	0.35
CCVQ	0.35
CLIL	17
CTVA	30
CVIA	5
CVLM	0.15
CVLS	3
CVVM	0.15
CIIM	0.15
CIKS	> 100
CIIS	0.35
CLLL	22
CAIL	100
CVIM	0.15
CVIL	11
CVIS	1
CAIM	0.15
CSIM	0.2

Target: T1, rat brain farnesyl:protein transferase
Assay: cell-based or functional assay
Remark: another data set of the same source

Binder	fold decrease in affinity for the enzyme against CVIM, as estimated by the concentration required for 50% inhibition [fold]	concentration giving 50% inhibition [µM]	fold increase in affinity for the enzyme against CVIM [fold]
CVIA	> 30	–	–
CVIF	–	0.5	–
CVPM	–	20	–
CEIM	–	1.5	–
CGIM	–	4	–
CVAM	> 30	–	–
CKIM	–	0.7	–
CPIM	–	8	–
CVFM	–	0.025	6
CVIL	–	12	–
